Data as given in IntAct's records for PubMed 31515488.

B1: Zinc finger protein Aiolos (Homo sapiens), Q9UKT9 (parent)
chain: MEDIQTNAELKSTQEQSVPAESAAVLNDYSLTKSHEMENVDSGEGPANEDEDIGDDSMKVKDEYSERDENVLKSEPMGNAEEPEIPYSYSREYNEYENIKLERHVVSFDSSRPTSGKMNCDVCGLSCISFNVLMVHKRSHTGERPFQCNQCGASFTQKGNLLRHIKLHTGEKPFKCHLCNYACQRRDALTGHLRTHSVEKPYKCEFCGRSYKQRSSLEEHKERCRTFLQSTDPGDTASAEARHIKAEMGSERALVLDRLASNVAKRKSSMPQKFIGEKRHCFDVNYNSSYMYEKESELIQTRMMDQAINNAISYLGAEALRPLVQTPPAPTSEMVPVISSMYPIALTRAEMSNGAPQELEKKSIHLPEKSVPSERGLSPNNSGHDSTDTDSNHEERQNHIYQQNHMVLSRARNGMPLLKEVPRSYELLKPPPICPRDSVKVINKEGEVMDVYRCDHCRVLFLDYVMFTIHMGCHGFRDPFECNMCGYRSHDRYEFSSHIARGEHRALLK
partner: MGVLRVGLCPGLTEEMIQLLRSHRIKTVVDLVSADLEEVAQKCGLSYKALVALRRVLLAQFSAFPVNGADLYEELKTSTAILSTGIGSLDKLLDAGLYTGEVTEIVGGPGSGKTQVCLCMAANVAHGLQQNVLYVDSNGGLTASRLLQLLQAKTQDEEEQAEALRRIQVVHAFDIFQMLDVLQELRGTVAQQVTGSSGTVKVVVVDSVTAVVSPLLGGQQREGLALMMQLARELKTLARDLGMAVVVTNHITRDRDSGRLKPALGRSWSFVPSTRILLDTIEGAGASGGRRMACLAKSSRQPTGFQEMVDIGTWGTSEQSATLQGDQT
B2: Leucine-rich repeat and calponin homology domain-containing protein 1 (Homo sapiens), Q9Y2L9 (parent)
chain: MATPGSEPQPFVPALSVATLHPLHHPHHHHHHHQHHGGTGAPGGAGGGGGGSGGFNLPLNRGLERALEEAANSGGLNLSARKLKEFPRTAAPGHDLSDTVQADLSKNRLVEVPMELCHFVSLEILNLYHNCIRVIPEAIVNLQMLTYLNLSRNQLSALPACLCGLPLKVLIASNNKLGSLPEEIGQLKQLMELDVSCNEITALPQQIGQLKSLRELNVRRNYLKVLPQELVDLSLVKFDFSCNKVLVIPICFREMKQLQVLLLENNPLQSPPAQICTKGKVHIFKYLSIQACQIKTADSLYLHTMERPHLHQHVEDGKKDSDSGVGSDNGDKRLSATEPSDEDTVSLNVPMSNIMEEEQIIKEDSCHRLSPVKGEFHQEFQPEPSLLGDSTNSGEERDQFTDRADGLHSEFMNYKARAEDCEELLRIEEDVHWQTEGIISSSKDQDMDIAMIEQLREAVDLLQDPNGLSTDITERSVLNLYPMGSAEALELQDSALNGQIQLETSPVCEVQSDLTLQSNGSQYSPNEIRENSPAVSPTTNSTAPFGLKPRSVFLRPQRNLESIDPQFTIRRKMEQMREEKELVEQLRESIEMRLKVSLHEDLGAALMDGVVLCHLVNHIRPRSVASIHVPSPAVPKLSMAKCRRNVENFLEACRKLGVPEADLCSPCDILQLDFRHIRKTVDTLLALGEKAPPPTSALRSRDLIGFCLVHILFIVLVYITYHWNALSA
B3: Serine/threonine-protein phosphatase 6 regulatory ankyrin repeat subunit B (Homo sapiens), Q8N8A2 (parent)
chain: MAVLKLTDQPPLVQAIFSGDPEEIRMLIHKTEDVNTLDSEKRTPLHVAAFLGDAEIIELLILSGARVNAKDNMWLTPLHRAVASRSEEAVQVLIKHSADVNARDKNWQTPLHVAAANKAVKCAEVIIPLLSSVNVSDRGGRTALHHAALNGHVEMVNLLLAKGANINAFDKKDRRALHWAAYMGHLDVVALLINHGAEVTCKDKKGYTPLHAAASNGQINVVKHLLNLGVEIDEINVYGNTALHIACYNGQDAVVNELIDYGANVNQPNNNGFTPLHFAAASTHGALCLELLVNNGADVNIQSKDGKSPLHMTAVHGRFTRSQTLIQNGGEIDCVDKDGNTPLHVAARYGHELLINTLITSGADTAKCGIHSMFPLHLAALNAHSDCCRKLLSSGFEIDTPDKFGRTCLHAAAAGGNVECIKLLQSSGADFHKKDKCGRTPLHYAAANCHFHCIETLVTTGANVNETDDWGRTALHYAAASDMDRNKTILGNAHDNSEELERARELKEKEATLCLEFLLQNDANPSIRDKEGYNSIHYAAAYGHRQCLELLLERTNSGFEESDSGATKSPLHLAAYNGHHQALEVLLQSLVDLDIRDEKGRTALDLAAFKGHTECVEALINQGASIFVKDNVTKRTPLHASVINGHTLCLRLLLEIADNPEAVDVKDAKGQTPLMLAVAYGHIDAVSLLLEKEANVDTVDILGCTALHRGIMTGHEECVQMLLEQEVSILCKDSRGRTPLHYAAARGHATWLSELLQMALSEEDCCFKDNQGYTPLHWACYNGNENCIEVLLEQKCFRKFIGNPFTPLHCAIINDHGNCASLLLGAIDSSIVSCRDDKGRTPLHAAAFADHVECLQLLLRHSAPVNAVDNSGKTALMMAAENGQAGAVDILVNSAQADLTVKDKDLNTPLHLACSKGHEKCALLILDKIQDESLINEKNNALQTPLHVAARNGLKVVVEELLAKGACVLAVDENASRSNGPRSTPGTAVQKEE
B4: Zyxin (Homo sapiens), Q15942 (parent)
chain: MAAPRPSPAISVSVSAPAFYAPQKKFGPVVAPKPKVNPFRPGDSEPPPAPGAQRAQMGRVGEIPPPPPEDFPLPPPPLAGDGDDAEGALGGAFPPPPPPIEESFPPAPLEEEIFPSPPPPPEEEGGPEAPIPPPPQPREKVSSIDLEIDSLSSLLDDMTKNDPFKARVSSGYVPPPVATPFSSKSSTKPAAGGTAPLPPWKSPSSSQPLPQVPAPAQSQTQFHVQPQPQPKPQVQLHVQSQTQPVSLANTQPRGPPASSPAPAPKFSPVTPKFTPVASKFSPGAPGGSGSQPNQKLGHPEALSAGTGSPQPPSFTYAQQREKPRVQEKQHPVPPPAQNQNQVRSPGAPGPLTLKEVEELEQLTQQLMQDMEHPQRQNVAVNELCGRCHQPLARAQPAVRALGQLFHIACFTCHQCAQQLQGQQFYSLEGAPYCEGCYTDTLEKCNTCGEPITDRMLRATGKAYHPHCFTCVVCARPLEGTSFIVDQANRPHCVPDYHKQYAPRCSVCSEPIMPEPGRDETVRVVALDKNFHMKCYKCEDCGKPLSIEADDNGCFPLDGHVLCRKCHTARAQT
partner: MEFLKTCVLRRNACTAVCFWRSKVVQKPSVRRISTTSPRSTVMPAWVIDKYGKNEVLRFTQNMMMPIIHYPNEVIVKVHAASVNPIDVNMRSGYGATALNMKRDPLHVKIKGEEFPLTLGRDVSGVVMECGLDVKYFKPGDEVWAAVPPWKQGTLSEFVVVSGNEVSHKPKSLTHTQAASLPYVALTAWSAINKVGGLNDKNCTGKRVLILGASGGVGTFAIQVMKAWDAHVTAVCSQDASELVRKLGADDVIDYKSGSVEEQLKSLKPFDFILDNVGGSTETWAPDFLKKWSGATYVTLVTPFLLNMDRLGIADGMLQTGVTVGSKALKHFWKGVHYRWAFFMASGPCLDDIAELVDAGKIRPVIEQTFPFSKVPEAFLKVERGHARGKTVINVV

Variants of: B1
Settings: with ra51d_human RAD51D

Row | effect of a mutation on the interaction | Variant
1 | with no effect | A24V
2 | with no effect | N119D

Variants of: B2
Settings: with dock8_human DOCK8, Q8NF50
Chain of dock8_human DOCK8, Q8NF50 (Q8NF50 whole entry): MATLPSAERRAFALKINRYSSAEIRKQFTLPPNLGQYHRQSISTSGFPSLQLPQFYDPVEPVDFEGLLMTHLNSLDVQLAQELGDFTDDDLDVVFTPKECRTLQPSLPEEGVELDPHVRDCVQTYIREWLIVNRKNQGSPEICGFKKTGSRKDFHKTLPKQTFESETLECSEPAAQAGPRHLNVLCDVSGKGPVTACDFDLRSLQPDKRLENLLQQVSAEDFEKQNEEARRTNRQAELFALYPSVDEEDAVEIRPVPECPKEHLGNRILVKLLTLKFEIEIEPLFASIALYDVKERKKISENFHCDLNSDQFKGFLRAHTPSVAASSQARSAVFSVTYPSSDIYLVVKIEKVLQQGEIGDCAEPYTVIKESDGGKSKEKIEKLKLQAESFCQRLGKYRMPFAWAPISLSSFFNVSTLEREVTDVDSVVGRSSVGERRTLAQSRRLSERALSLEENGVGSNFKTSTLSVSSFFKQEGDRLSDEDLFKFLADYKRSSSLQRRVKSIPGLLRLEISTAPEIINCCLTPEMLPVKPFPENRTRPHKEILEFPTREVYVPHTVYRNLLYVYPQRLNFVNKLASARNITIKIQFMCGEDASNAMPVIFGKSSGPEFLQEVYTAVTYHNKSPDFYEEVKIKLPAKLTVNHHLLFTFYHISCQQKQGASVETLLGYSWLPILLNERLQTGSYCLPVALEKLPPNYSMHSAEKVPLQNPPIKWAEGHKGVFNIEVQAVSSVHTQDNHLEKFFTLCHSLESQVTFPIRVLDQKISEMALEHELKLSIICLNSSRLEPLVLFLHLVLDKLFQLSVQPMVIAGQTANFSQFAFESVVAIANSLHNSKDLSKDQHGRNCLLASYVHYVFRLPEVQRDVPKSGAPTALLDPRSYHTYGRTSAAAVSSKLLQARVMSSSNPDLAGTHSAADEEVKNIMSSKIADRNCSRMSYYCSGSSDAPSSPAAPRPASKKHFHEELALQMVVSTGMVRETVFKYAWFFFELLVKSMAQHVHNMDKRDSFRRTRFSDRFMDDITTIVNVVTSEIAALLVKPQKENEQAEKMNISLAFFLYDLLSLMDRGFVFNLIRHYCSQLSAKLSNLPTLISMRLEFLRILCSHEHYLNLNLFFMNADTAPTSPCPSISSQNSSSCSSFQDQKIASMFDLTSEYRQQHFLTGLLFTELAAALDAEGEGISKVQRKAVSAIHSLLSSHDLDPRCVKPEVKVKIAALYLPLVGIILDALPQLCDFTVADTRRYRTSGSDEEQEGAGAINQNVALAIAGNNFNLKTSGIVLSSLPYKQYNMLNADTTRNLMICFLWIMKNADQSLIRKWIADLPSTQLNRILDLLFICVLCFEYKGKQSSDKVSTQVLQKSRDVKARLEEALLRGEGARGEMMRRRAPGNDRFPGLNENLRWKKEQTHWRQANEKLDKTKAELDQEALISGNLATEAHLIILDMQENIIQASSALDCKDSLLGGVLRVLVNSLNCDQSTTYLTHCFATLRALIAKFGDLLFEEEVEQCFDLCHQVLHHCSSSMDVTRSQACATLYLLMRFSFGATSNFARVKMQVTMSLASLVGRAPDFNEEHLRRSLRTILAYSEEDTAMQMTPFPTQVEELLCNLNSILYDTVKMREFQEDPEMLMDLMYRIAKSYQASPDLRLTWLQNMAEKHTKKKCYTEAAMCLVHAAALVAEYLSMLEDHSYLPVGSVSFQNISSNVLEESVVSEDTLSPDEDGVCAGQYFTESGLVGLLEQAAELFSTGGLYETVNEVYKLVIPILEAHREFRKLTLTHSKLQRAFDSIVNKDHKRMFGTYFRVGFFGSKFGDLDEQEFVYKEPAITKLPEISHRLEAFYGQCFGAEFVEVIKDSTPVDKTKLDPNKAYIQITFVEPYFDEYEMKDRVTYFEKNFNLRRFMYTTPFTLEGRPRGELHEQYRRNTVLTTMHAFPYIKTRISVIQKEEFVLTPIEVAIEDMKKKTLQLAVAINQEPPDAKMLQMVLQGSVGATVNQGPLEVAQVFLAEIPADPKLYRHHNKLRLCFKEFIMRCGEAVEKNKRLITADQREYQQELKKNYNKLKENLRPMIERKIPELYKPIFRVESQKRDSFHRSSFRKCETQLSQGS

Row | effect of a mutation on the interaction | Variant
3 | with no effect | A486S

Variants of: B3
Settings: with wwp2_human WWP2, O00308
Chain of wwp2_human WWP2, O00308 (O00308 whole entry): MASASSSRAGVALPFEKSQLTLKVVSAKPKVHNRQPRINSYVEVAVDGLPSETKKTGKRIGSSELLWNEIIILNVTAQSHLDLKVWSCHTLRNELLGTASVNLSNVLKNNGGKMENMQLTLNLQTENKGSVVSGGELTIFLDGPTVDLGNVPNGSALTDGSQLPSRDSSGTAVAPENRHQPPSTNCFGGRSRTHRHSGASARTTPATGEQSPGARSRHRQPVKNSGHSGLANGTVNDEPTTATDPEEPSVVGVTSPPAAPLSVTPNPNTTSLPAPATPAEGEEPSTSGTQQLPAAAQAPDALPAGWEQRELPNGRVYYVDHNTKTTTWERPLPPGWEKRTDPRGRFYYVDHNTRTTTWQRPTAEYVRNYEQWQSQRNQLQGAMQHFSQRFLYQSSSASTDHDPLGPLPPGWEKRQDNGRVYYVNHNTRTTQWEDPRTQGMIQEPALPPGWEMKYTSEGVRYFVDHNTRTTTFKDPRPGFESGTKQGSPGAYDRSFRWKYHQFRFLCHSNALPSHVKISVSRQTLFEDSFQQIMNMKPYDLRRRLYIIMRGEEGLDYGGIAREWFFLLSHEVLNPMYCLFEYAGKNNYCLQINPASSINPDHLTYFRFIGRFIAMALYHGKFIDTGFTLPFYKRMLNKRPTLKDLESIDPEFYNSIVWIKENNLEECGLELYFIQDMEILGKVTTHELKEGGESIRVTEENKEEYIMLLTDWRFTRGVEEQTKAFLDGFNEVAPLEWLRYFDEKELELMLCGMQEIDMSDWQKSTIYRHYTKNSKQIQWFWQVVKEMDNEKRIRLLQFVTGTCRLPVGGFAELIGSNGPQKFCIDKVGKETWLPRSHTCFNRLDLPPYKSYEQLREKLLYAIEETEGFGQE

Row | effect of a mutation on the interaction | Variant
4 | disrupting interaction strength | R80W

Variants of: B4
Settings: with rt4i1_human RTN4IP1, Q8WWV3

Row | effect of a mutation on the interaction | Variant
5 | with no effect | R489W
6 | with no effect | R563Q
